Experimental data from PMC3292560, “Isolation and Characterization of EstC, a New Cold-Active Esterase from Streptomyces coelicolor A3(2)” (PLoS ONE, 2012).

What was measured:
Type in all cases: biochemical, Streptomyces coelicolor
[1] = substrate: CC(=O)OCC(COC(C)=O)OC(C)=O; assay: pH-stat titration of released fatty acid; settings: 5 mM Tris-HCl pH 8.5, 1% arabic gum emulsion, 35°C
Text: (§1) pH-stat titration of released fatty acid on EstC

[2] = substrate: CCCC(=O)OCC(COC(=O)CCC)OC(=O)CCC; assay: pH-stat titration of released fatty acid; settings: 5 mM Tris-HCl pH 8.5, 1% arabic gum emulsion, 35°C
Text: as §1

[3] = substrate: CCCCC(=O)Oc1ccc([N+](=O)[O-])cc1; assay: purified protein; settings: 50 mM Tris-HCl pH 8.5, 0.1% Triton X-100, 35°C, fitted below substrate-inhibiting concentrations
[4] = substrate: CCCCCC(=O)Oc1ccc([N+](=O)[O-])cc1; assay: purified protein; settings: 50 mM Tris-HCl pH 8.5, 0.1% Triton X-100, 35°C, fitted below substrate-inhibiting concentrations
[5] = substrate: CC(=O)Oc1ccc([N+](=O)[O-])cc1; assay: purified protein; settings: 50 mM Tris-HCl pH 8.5, 0.1% Triton X-100, 35°C, fitted below substrate-inhibiting concentrations
[6] = substrate: CCCC(=O)Oc1ccc([N+](=O)[O-])cc1; assay: purified protein; settings: 50 mM Tris-HCl pH 8.5, 0.1% Triton X-100, 35°C, fitted below substrate-inhibiting concentrations
[7] = substrate: CCCCCCCC(=O)Oc1ccc([N+](=O)[O-])cc1; assay: purified protein; settings: 50 mM Tris-HCl pH 8.5, 0.1% Triton X-100, 35°C, fitted below substrate-inhibiting concentrations

B1: EstC (Streptomyces coelicolor A3(2)) (protein)
chain: MSRNAAFSPPPSARAYRLRTARGEFAVVDSPAAAGVAPRGVVMMLPGFTGSKEDFTLLHRPLGARGYRTVAVDGRGQYESDGPEHDESAYARPELARDVLAQAAALGTRVHLVGHSLGGQIARAAVLLDPAPFLSLTLMSSGPARISESQRQRVKLLRDALDTMTMAEVWEVMQAMGPPEEAGAPAPAHGPEDRVRLRDRWLGTRPAQLLATGGQLCTEPDRVAELAAVPLPFHVLSGTYDDTWPVPLLDEMALRLDARRTVVAGAEHSPNTDQPLPTARALADFWDDHPVPPRPYVR
notes: full-length ORF, no signal peptide, N-terminal His-tag (pET16b) kept, E. coli BL21(DE3), IMAC; 34665 Da with tag without initiator Met
**Q.** What does the source list for B1?
**A.** Km [1]: 90000 ± 1000 µM; kcat [1]: 151 ± 2 s⁻¹; kcat/Km [1]: 1700 ± 30 M⁻¹ s⁻¹; Km [2]: 620 ± 300 µM; kcat [2]: 14 ± 1 s⁻¹; kcat/Km [2]: 23000 ± 12000 M⁻¹ s⁻¹; Km [3]: 270 ± 30 µM; kcat [3]: 199 ± 6 s⁻¹; kcat/Km [3]: 737000 ± 77000 M⁻¹ s⁻¹; Km [4]: 71 ± 4 µM; kcat [4]: 41 ± 1 s⁻¹; kcat/Km [4]: 578000 ± 36000 M⁻¹ s⁻¹; Km [5]: 2900 ± 800 µM; kcat [5]: 451 ± 10 s⁻¹; kcat/Km [5]: 156000 ± 41000 M⁻¹ s⁻¹; Km [6]: 840 ± 50 µM; kcat [6]: 124 ± 2 s⁻¹; kcat/Km [6]: 148000 ± 10000 M⁻¹ s⁻¹; Km [7]: 110 ± 18 µM; kcat [7]: 58 ± 3 s⁻¹; kcat/Km [7]: 527000 ± 90000 M⁻¹ s⁻¹
